# Reference: patent US20240261333A1, “NOVEL TARGETS FOR ENHANCING ANTI-TUMOR IMMUNITY” (THE BROAD INSTITUTE, INC., priority 2021, published 2024)
# T1: B3GNT2 (Homo sapiens, UniProt Q9NY97)
# T1 construct: The respective ORFs of candidate genes [CD274 (NM_014143), MCL1 (NM_021960), JUNB (NM_002229), and B3GNT2 (NM_006577)] were synthesized; expressed in transfected cells; host or cells: A375 melanoma cells (lentiviral ORF overexpression)
# T1 sequence (Q9NY97 1-397): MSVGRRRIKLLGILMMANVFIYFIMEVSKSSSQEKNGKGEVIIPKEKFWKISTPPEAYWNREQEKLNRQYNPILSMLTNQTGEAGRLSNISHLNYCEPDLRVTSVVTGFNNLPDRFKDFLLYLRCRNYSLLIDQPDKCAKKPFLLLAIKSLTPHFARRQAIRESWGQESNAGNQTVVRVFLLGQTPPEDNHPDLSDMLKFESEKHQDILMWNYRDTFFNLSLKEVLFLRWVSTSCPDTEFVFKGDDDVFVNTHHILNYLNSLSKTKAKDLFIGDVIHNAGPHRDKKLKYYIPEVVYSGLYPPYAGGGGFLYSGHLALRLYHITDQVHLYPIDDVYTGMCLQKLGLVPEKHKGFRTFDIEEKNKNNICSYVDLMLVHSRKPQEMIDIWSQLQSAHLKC
# B1: IFI16 (protein)
# chain: MGKKYKNIVLLKGLEVINDYHFRMVKSLLSNDLKLNLKMREEYDKIQIADLMEEKFRGDAGLGKLIKIFEDIPTLEDLAETLKKEKLKVKGPALSRKRKKEVDATSPAPSTSSTVKTEGAEATPGAQKRKKSTKEKAGPKGSKVSEEQTQPPSPAGAGMSTAMGRSPSPKTSLSAPPNSSSTENPKTVAKCQVTPRRNVLQKRPVIVKVLSTTKPFEYETPEMEKKIMFHATVATQTQFFHVKVLNTSLKEKFNGKKIIIISDYLEYDSLLEVNEESTVSEAGPNQTFEVPNKIINRAKETLKIDILHKQASGNIVYGVFMLHKKTVNQKTTIYEIQDDRGKMDVVGTGQCHNIPCEEGDKLQLFCFRLRKKNQMSKLISEMHSFIQIKKKTNPRNNDPKSMKLPQEQRQLPYPSEASTTFPESHLRTPQMPPTTPSSSFFTKKSEDTISKMNDFMRMQILKEGSHFPGPFMTSIGPAESHPHTPQMPPSTPSSSFLTTLKPRLKTEPEEVSIEDSAQSDLKEVMVLNATESFVYEPKEQKKMFHATVATENEVFRVKVFNIDLKEKFTPKKIIAIANYVCRNGFLEVYPFTLVADVNADRNMEIPKGLIRSASVTPKINQLCSQTKGSFVNGVFEVHKKNVRGEFTYYEIQDNTGKMEVVVHGRLTTINCEEGDKLKLTCFELAPKSGNTGELRSVIHSHIKVIKTRKNKKDILNPDSSMETSPDFFF
# B2: UBTF (protein)
# chain: MNGEADCPTDLEMAAPKGQDRWSQEDMLTLLECMKNNLPSNDSSKFKTTESHMDWEKVAFKDFSGDMCKLKWVEISNEVRKFRTLTELILDAQEHVKNPYKGKKLKKHPDFPKKPLTPYFRFFMEKRAKYAKLHPEMSNLDLTKILSKKYKELPEKKKMKYIQDFQREKQEFERNLARFREDHPDLIQNAKKSDIPEKPKTPQQLWYTHEKKVYLKVRPDEIMRDYIQKHPELNISEEGITKSTLTKAERQLKDKFDGRPTKPPPNSYSLYCAELMANMKDVPSTERMVLCSQQWKLLSQKEKDAYHKKCDQKKKDYEVELLRFLESLPEEEQQRVLGEEKMLNINKKQATSPASKKPAQEGGKGGSEKPKRPVSAMFIFSEEKRRQLQEERPELSESELTRLLARMWNDLSEKKKAKYKAREAALKAQSERKPGGEREERGKLPESPKRAEEIWQQSVIGDYLARFKNDRVKALKAMEMTWNNMEKKEKLMWIKKAAEDQKRYERELSEMRAPPAATNSSKKMKFQGEPKKPPMNGYQKFSQELLSNGELNHLPLKERMVEIGSRWQRISQSQKEHYKKLAEEQQKQYKVHLDLWVKSLSPQDRAAYKEYISNKRKSMTKLRGPNPKSSRTTLQSKSESEEDDEEDEDDEDEDEEEEDDENGDSSEDGGDSSESSSEDESEDGDENEEDDEDEDDDEDDDEDEDNESEGSSSSSSSSGDSSDSDSN
# B3: ATAD3A (protein)
# chain: SWLFGINKGPKGEGAGPPPPLPPAQPGAEGGGDRGLGDRPAPKDKWSNFDPTGLERAAKAARELEHSRYAKDALNLAQMQEQTLQLEQQSKLKEYEAAVEQLKSEQIRAQAEERRKTLSEETRQHQARAQYQDKLARQRYEDQLKQQQLLNEENLRKQEESVQKQEAMRRATVEREMELRHKNEMLRVEAEARARAKAERENADIIREQIRLKAAEHRQTVLESIRTAGTLFGEGFRAFVTDWDKVTATVAGLTLLAVGVYSAKNATLVAGRFIEARLGKPSLVRETSRITVLEALRHPIQVSRRLLSRPQDALEGVVLSPSLEARVRDIAIATRNTKKNRSLYRNILMYGPPGTGKTLFAKKLALHSGMDYAIMTGGDVAPMGREGVTAMHKLFDWANTSRRGLLLFVDEADAFLRKRATEKISEDLRATLNAFLYRTGQHSNKFMLVLASNQPEQFDWAINDRINEMVHFDLPGQEERERLVRMYFDKYVLKPATEGKQRLKLAQFDYGRKCSEVARLTEGMSGREIAQLAVSWQATAYASEDGVLTEAMMDTRVQDAVQQHQQKMCWLKAEGPGRGDEPSPS
# B4: PGAM5 (protein)
# chain: MAFRQALQLAACGLAGGSAAVLFSAVAVGKPRAGGDAEPRPAEPPAWAGGARPGPGVWDPNWDRREPLSLINVRKRNVESGEEELASKLDHYKAKATRHIFLIRHSQYHVDGSLEKDRTLTPLGREQAELTGLRLASLGLKFNKIVHSSMTRAIETTDIISRHLPGVCKVSTDLLREGAPIEPDPPVSHWKPEAVQYYEDGARIEAAFRNYIHRADARQEEDSYEIFICHANVIRYIVCRALQFPPEGWLRLSLNNGSITHLVIRPNGRVALRTLGDTGFMPPDKITRS
# B5: RCN1 (protein)
# chain: KPTVRKERVVRPDSELGERPPEDNQSFQYDHEAFLGKEDSKTFDQLTPDESKERLGKIVDRIDNDGDGFVTTEELKTWIKRVQKRYIFDNVAKVWKDYDRDKDDKISWEEYKQATYGYYLGNPAEFHDSSDHHTFKKMLPRDERRFKAADLNGDLTATREEFTAFLHPEEFEHMKEIVVLETLEDIDKNGDGFVDQDEYIADMFSHEENGPEPDWVLSEREQFNEFRDLNKDGKLDKDEIRHWILPQDYDHAQAEARHLVYESDKNKDEKLTKEEILENWNMFVGSQATNYGEDLTKNHDEL
# B6: DNAJA3 (protein)
# chain: GVSLTGTKHNPFICTASFHTSAPLAKEDYYQILGVPRNASQKEIKKAYYQLAKKYHPDTNKDDPKAKEKFSQLAEAYEVLSDEVKRKQYDAYGSAGFDPGASGSQHSYWKGGPTVDPEELFRKIFGEFSSSSFGDFQTVFDQPQEYFMELTFNQAAKGVNKEFTVNIMDTCERCNGKGNEPGTKVQHCHYCGGSGMETINTGPFVMRSTCRRCGGRGSIIISPCVVCRGAGQAKQKKRVMIPVPAGVEDGQTVRMPVGKREIFITFRVQKSPVFRRDGADIHSDLFISIAQALLGGTARAQGLYETINVTIPPGTQTDQKIRMGGKGIPRINSYGYGDHYIHIKIRVPKRLTSRQQSLILSYAEDETDVEGTVNGVTLTSSGKRSTGN
# B7: PSMC2 (protein)
# chain: PDYLGADQRKTKEDEKDDKPIRALDEGDIALLKTYGQSTYSRQIKQVEDDIQQLLKKINELTGIKESDTGLAPPALWDLAADKQTLQSEQPLQVARCTKIINADSEDPKYIINVKQFAKFVVDLSDQVAPTDIEEGMRVGVDRNKYQIHIPLPPKIDPTVTMMQVEEKPDVTYSDVGGCKEQIEKLREVVETPLLHPERFVNLGIEPPKGVLLFGPPGTGKTLCARAVANRTDACFIRVIGSELVQKYVGEGARMVRELFEMARTKKACLIFFDEIDAIGGARFDDGAGGDNEVQRTMLELINQLDGFDPRGNIKVLMATNRPDTLDPALMRPGRLDRKIEFSLPDLEGRTHIFKIHARSMSVERDIRFELLARLCPNSTGAEIRSVCTEAGMFAIRARRKIATEKDFLEAVNKVIKSYAKFSATPRYMTYN
# Target: T1, B3GNT2
# Test: Co-IP of FLAG-tagged B3GNT2 followed by mass spectrometry
# Type: cell-based
# Parameters: C-term IgG / C-term flag: unit not given here
# Conditions: Co-IP with FLAG antibody, C-terminally FLAG-tagged B3GNT2; mass spectrometry count, unit not given
# How it was run: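 FLAG-tagged B3GNT2 immunoprecipitated from cell lysate (HEPES, 1% Triton X-100, 150 mM NaCl) with anti-FLAG versus […], overnight at 4° C, then captured on Protein A/G magnetic beads for 4 h. Two biological replicates per condition. Peptides fractionated and analyzed by nano-LC on an Orbitrap Elite in data-dependent mode.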
row,C-term flag,Molecule
1,2,B1
2,2,B2
3,9,B3
4,5,B4
5,9,B5
6,2,B6
7,0,B7

# Same assay, conditions: Co-IP with FLAG antibody, N-terminally FLAG-tagged B3GNT2; mass spectrometry count, unit not given
row,N-term FLAG,Molecule
1,0,B1
2,0,B2
3,0,B3
4,4,B4
5,0,B5
6,0,B6
7,2,B7

# Same assay, conditions: Co-IP with IgG control antibody, C-terminally FLAG-tagged B3GNT2; mass spectrometry count, unit not given
row,C-term IgG,Molecule
1,0,B1
2,0,B2
3,0,B3
4,0,B4
5,0,B5
6,0,B6
7,0,B7

# Same assay, conditions: Co-IP with IgG control antibody, N-terminally FLAG-tagged B3GNT2; mass spectrometry count, unit not given
row,N-term IgG,Molecule
1,0,B1
2,0,B2
3,0,B3
4,0,B4
5,0,B5
6,0,B6
7,0,B7
